Measured values reported in PMC4705688.

Columns and labels:
[1] = target: His-Cmr (Mycobacterium tuberculosis H37Rv) (UniProt P9WMH5); experiment: DNase I footprinting
[2] = target: His-Cmr (Mycobacterium tuberculosis H37Rv) (UniProt P9WMH5); experiment: EMSA
[3] = target: His-Cmr HTH- del195-244 (Mycobacterium tuberculosis H37Rv) (UniProt P9WMH5); experiment: EMSA
[4] = target: His-Cmr HTH+ del217-244 (Mycobacterium tuberculosis H37Rv) (UniProt P9WMH5); experiment: EMSA
Chain of His-Cmr HTH+ del217-244 (Mycobacterium tuberculosis H37Rv) (P9WMH5 1-216): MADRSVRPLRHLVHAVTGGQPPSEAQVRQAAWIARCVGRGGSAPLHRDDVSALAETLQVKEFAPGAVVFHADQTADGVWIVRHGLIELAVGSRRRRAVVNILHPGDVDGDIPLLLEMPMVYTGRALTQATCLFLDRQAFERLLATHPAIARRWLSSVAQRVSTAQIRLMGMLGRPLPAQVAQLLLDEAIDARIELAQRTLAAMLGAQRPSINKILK

Chain of His-Cmr (Mycobacterium tuberculosis H37Rv) (P9WMH5 whole entry): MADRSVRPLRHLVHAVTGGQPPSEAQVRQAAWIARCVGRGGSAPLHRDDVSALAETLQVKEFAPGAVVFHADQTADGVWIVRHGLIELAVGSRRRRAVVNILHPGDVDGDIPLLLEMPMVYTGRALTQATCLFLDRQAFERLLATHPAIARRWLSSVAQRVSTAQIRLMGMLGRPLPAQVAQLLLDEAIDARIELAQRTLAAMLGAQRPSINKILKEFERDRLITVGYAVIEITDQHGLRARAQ
Chain of His-Cmr HTH- del195-244 (Mycobacterium tuberculosis H37Rv) (P9WMH5 1-194): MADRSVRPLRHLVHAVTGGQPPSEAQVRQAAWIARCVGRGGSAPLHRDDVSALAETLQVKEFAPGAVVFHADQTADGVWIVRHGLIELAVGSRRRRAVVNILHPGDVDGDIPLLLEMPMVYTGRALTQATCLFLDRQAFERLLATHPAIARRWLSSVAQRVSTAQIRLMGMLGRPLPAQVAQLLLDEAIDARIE

| Sequence | binding [1] | binding [2] | binding [3] | binding [4] |
| --- | --- | --- | --- | --- |
| CGGACTGCTGCTGCTCGCCGTTGTCTCCGGTGATTGGGTTGCCCATACCTCCTGGGGCGCAGCGTGGTTCAGCTTGTCACCGGTGACACTGTGTTGGCTTCTCATCAGCTATGGCTTCGCAGCTTCGGTGCTGCCGGTGTGGCTGCTGCTCGCGCCACGCGACTACCTGTCAACGTTCATGAAGG (double strand) [1C1 full] | binds | binds | no binding | binds |
| TCTATGGCGGCCAGGGACGCACATTGTGGGCTTCGGGGTAATTGTCTTGGGTTGGCTGCCCCGCGCTGCACAGGGTTACTGGCCCAGGAGGCGGACGTCATCGTGTTAACACCCGTCGGGATAACCTGGGAGCGGCGCAGCCAAGGAAGGAACCAACCGTCCGGTGTCAGACCTAGCCAGAACCGACGTCGTGCTGATC (double strand) [2C5 full] | – | binds | no binding | binds |
| ATCTCAACTATGTGGCCTTGTCCTTAGTCACCGCCGACGGACACACCCTGCTGCACCACCCGTATACCCAGAGCGAGGTGGACATCAAGAAGAACGTGTTCACGATGATGATGCGGCTACCGTGGTTGTATCGCGTTCCCGTACATACGATTCACAAATTTGGCCACATGCTCAGCGGCATGGCGATCCGGATCGTC (double strand) [2G5 full] | – | binds | no binding | binds |
| TAAAGTCACCGCCGGGGCCGATGTTCGCAGTCGCGGGCTCGGTGCCATCCATATCGTTGCGCAGCGCGATGCCGTGCCAATGCACCGACGTCGGATCACCCAGACGGTTGGTCACCGAGACGACAATCTCATCCCCGACGGTGGCCCGGATCAGTGGTCCGGGGATGGTGTTGCCGTAGGTCAGCGTGCTGACGATCGGCCCACCCAGGTCGATCCTCGCCGGCTGGGGGGTCAGCGTGGCGGTAACCGTTCGCCCACTGTGCGGCCGGGCCGCCTCGGCCGCGTCGATTGCAGCGGT (double strand) [Rv0846c] | – | binds | – | – |
